Paper PMC5035230 (Biochimica et biophysica acta, 2016)

B1: P453L-hE3 (pathogenic variant of human dihydrolipoamide dehydrogenase) (enzyme, UniProt P09622 36-509, looked up)
chain: ADQPIDADVTVIGSGPGGYVAAIKAAQLGFKTVCIEKNETLGGTCLNVGCIPSKALLNNSHYYHMAHGKDFASRGIEMSEVRLNLDKMMEQKSTAVKALTGGIAHLFKQNKVVHVNGYGKITGKNQVTATKADGGTQVIDTKNILIATGSEVTPFPGITIDEDTIVSSTGALSLKKVPEKMVVIGAGVIGVELGSVWQRLGADVTAVEFLGHVGGVGIDMEISKNFQRILQKQGFKFKLNTKVTGATKKSDGKIDVSIEAASGGKAEVITCDVLLVCIGRRPFTKNLGLEELGIELDPRGRIPVNTRFQTKIPNIYAIGDVVAGPMLAHKAEDEGIICVEGMAGGAVHIDYNCVPSVIYTHPEVAWVGKSEEQLKEEGIEYKVGKFPFAANSRAKTNADTDGMVKILGQKSTDRVLGAHILGPGAGEMVNEAALALEYGASCEDIARVCHAHLTLSEAFREANLAASFGKSINF
B2: D444V-hE3 (pathogenic variant of human dihydrolipoamide dehydrogenase) (enzyme, UniProt P09622 36-509, looked up)
chain: ADQPIDADVTVIGSGPGGYVAAIKAAQLGFKTVCIEKNETLGGTCLNVGCIPSKALLNNSHYYHMAHGKDFASRGIEMSEVRLNLDKMMEQKSTAVKALTGGIAHLFKQNKVVHVNGYGKITGKNQVTATKADGGTQVIDTKNILIATGSEVTPFPGITIDEDTIVSSTGALSLKKVPEKMVVIGAGVIGVELGSVWQRLGADVTAVEFLGHVGGVGIDMEISKNFQRILQKQGFKFKLNTKVTGATKKSDGKIDVSIEAASGGKAEVITCDVLLVCIGRRPFTKNLGLEELGIELDPRGRIPVNTRFQTKIPNIYAIGDVVAGPMLAHKAEDEGIICVEGMAGGAVHIDYNCVPSVIYTHPEVAWVGKSEEQLKEEGIEYKVGKFPFAANSRAKTNADTDGMVKILGQKSTDRVLGAHILGPGAGEMVNEAALALEYGASCEVIARVCHAHPTLSEAFREANLAASFGKSINF
B3: K37E-hE3 (pathogenic variant of human dihydrolipoamide dehydrogenase) (enzyme, UniProt P09622 36-509, looked up)
chain: ADQPIDADVTVIGSGPGGYVAAIKAAQLGFKTVCIEENETLGGTCLNVGCIPSKALLNNSHYYHMAHGKDFASRGIEMSEVRLNLDKMMEQKSTAVKALTGGIAHLFKQNKVVHVNGYGKITGKNQVTATKADGGTQVIDTKNILIATGSEVTPFPGITIDEDTIVSSTGALSLKKVPEKMVVIGAGVIGVELGSVWQRLGADVTAVEFLGHVGGVGIDMEISKNFQRILQKQGFKFKLNTKVTGATKKSDGKIDVSIEAASGGKAEVITCDVLLVCIGRRPFTKNLGLEELGIELDPRGRIPVNTRFQTKIPNIYAIGDVVAGPMLAHKAEDEGIICVEGMAGGAVHIDYNCVPSVIYTHPEVAWVGKSEEQLKEEGIEYKVGKFPFAANSRAKTNADTDGMVKILGQKSTDRVLGAHILGPGAGEMVNEAALALEYGASCEDIARVCHAHPTLSEAFREANLAASFGKSINF
B4: R460G-hE3 (pathogenic variant of human dihydrolipoamide dehydrogenase) (enzyme, UniProt P09622 36-509, looked up)
chain: ADQPIDADVTVIGSGPGGYVAAIKAAQLGFKTVCIEKNETLGGTCLNVGCIPSKALLNNSHYYHMAHGKDFASRGIEMSEVRLNLDKMMEQKSTAVKALTGGIAHLFKQNKVVHVNGYGKITGKNQVTATKADGGTQVIDTKNILIATGSEVTPFPGITIDEDTIVSSTGALSLKKVPEKMVVIGAGVIGVELGSVWQRLGADVTAVEFLGHVGGVGIDMEISKNFQRILQKQGFKFKLNTKVTGATKKSDGKIDVSIEAASGGKAEVITCDVLLVCIGRRPFTKNLGLEELGIELDPRGRIPVNTRFQTKIPNIYAIGDVVAGPMLAHKAEDEGIICVEGMAGGAVHIDYNCVPSVIYTHPEVAWVGKSEEQLKEEGIEYKVGKFPFAANSRAKTNADTDGMVKILGQKSTDRVLGAHILGPGAGEMVNEAALALEYGASCEDIARVCHAHPTLSEAFGEANLAASFGKSINF
B5: R447G-hE3 (pathogenic variant of human dihydrolipoamide dehydrogenase) (enzyme, UniProt P09622 36-509, looked up)
chain: ADQPIDADVTVIGSGPGGYVAAIKAAQLGFKTVCIEKNETLGGTCLNVGCIPSKALLNNSHYYHMAHGKDFASRGIEMSEVRLNLDKMMEQKSTAVKALTGGIAHLFKQNKVVHVNGYGKITGKNQVTATKADGGTQVIDTKNILIATGSEVTPFPGITIDEDTIVSSTGALSLKKVPEKMVVIGAGVIGVELGSVWQRLGADVTAVEFLGHVGGVGIDMEISKNFQRILQKQGFKFKLNTKVTGATKKSDGKIDVSIEAASGGKAEVITCDVLLVCIGRRPFTKNLGLEELGIELDPRGRIPVNTRFQTKIPNIYAIGDVVAGPMLAHKAEDEGIICVEGMAGGAVHIDYNCVPSVIYTHPEVAWVGKSEEQLKEEGIEYKVGKFPFAANSRAKTNADTDGMVKILGQKSTDRVLGAHILGPGAGEMVNEAALALEYGASCEDIAGVCHAHPTLSEAFREANLAASFGKSINF
B6: E340K-hE3 (pathogenic variant of human dihydrolipoamide dehydrogenase) (enzyme, UniProt P09622 36-509, looked up)
chain: ADQPIDADVTVIGSGPGGYVAAIKAAQLGFKTVCIEKNETLGGTCLNVGCIPSKALLNNSHYYHMAHGKDFASRGIEMSEVRLNLDKMMEQKSTAVKALTGGIAHLFKQNKVVHVNGYGKITGKNQVTATKADGGTQVIDTKNILIATGSEVTPFPGITIDEDTIVSSTGALSLKKVPEKMVVIGAGVIGVELGSVWQRLGADVTAVEFLGHVGGVGIDMEISKNFQRILQKQGFKFKLNTKVTGATKKSDGKIDVSIEAASGGKAEVITCDVLLVCIGRRPFTKNLGLEELGIELDPRGRIPVNTRFQTKIPNIYAIGDVVAGPMLAHKAEDEGIICVKGMAGGAVHIDYNCVPSVIYTHPEVAWVGKSEEQLKEEGIEYKVGKFPFAANSRAKTNADTDGMVKILGQKSTDRVLGAHILGPGAGEMVNEAALALEYGASCEDIARVCHAHPTLSEAFREANLAASFGKSINF
B7: I358T-hE3 (pathogenic variant of human dihydrolipoamide dehydrogenase) (enzyme, UniProt P09622 36-509, looked up)
chain: ADQPIDADVTVIGSGPGGYVAAIKAAQLGFKTVCIEKNETLGGTCLNVGCIPSKALLNNSHYYHMAHGKDFASRGIEMSEVRLNLDKMMEQKSTAVKALTGGIAHLFKQNKVVHVNGYGKITGKNQVTATKADGGTQVIDTKNILIATGSEVTPFPGITIDEDTIVSSTGALSLKKVPEKMVVIGAGVIGVELGSVWQRLGADVTAVEFLGHVGGVGIDMEISKNFQRILQKQGFKFKLNTKVTGATKKSDGKIDVSIEAASGGKAEVITCDVLLVCIGRRPFTKNLGLEELGIELDPRGRIPVNTRFQTKIPNIYAIGDVVAGPMLAHKAEDEGIICVEGMAGGAVHIDYNCVPSVTYTHPEVAWVGKSEEQLKEEGIEYKVGKFPFAANSRAKTNADTDGMVKILGQKSTDRVLGAHILGPGAGEMVNEAALALEYGASCEDIARVCHAHPTLSEAFREANLAASFGKSINF
B8: I318T-hE3 (pathogenic variant of human dihydrolipoamide dehydrogenase) (enzyme, UniProt P09622 36-509, looked up)
chain: ADQPIDADVTVIGSGPGGYVAAIKAAQLGFKTVCIEKNETLGGTCLNVGCIPSKALLNNSHYYHMAHGKDFASRGIEMSEVRLNLDKMMEQKSTAVKALTGGIAHLFKQNKVVHVNGYGKITGKNQVTATKADGGTQVIDTKNILIATGSEVTPFPGITIDEDTIVSSTGALSLKKVPEKMVVIGAGVIGVELGSVWQRLGADVTAVEFLGHVGGVGIDMEISKNFQRILQKQGFKFKLNTKVTGATKKSDGKIDVSIEAASGGKAEVITCDVLLVCIGRRPFTKNLGLEELGIELDPRGRIPVNTRFQTKIPNIYATGDVVAGPMLAHKAEDEGIICVEGMAGGAVHIDYNCVPSVIYTHPEVAWVGKSEEQLKEEGIEYKVGKFPFAANSRAKTNADTDGMVKILGQKSTDRVLGAHILGPGAGEMVNEAALALEYGASCEDIARVCHAHPTLSEAFREANLAASFGKSINF
B9: I445M-hE3 (pathogenic variant of human dihydrolipoamide dehydrogenase) (enzyme, UniProt P09622 36-509, looked up)
chain: ADQPIDADVTVIGSGPGGYVAAIKAAQLGFKTVCIEKNETLGGTCLNVGCIPSKALLNNSHYYHMAHGKDFASRGIEMSEVRLNLDKMMEQKSTAVKALTGGIAHLFKQNKVVHVNGYGKITGKNQVTATKADGGTQVIDTKNILIATGSEVTPFPGITIDEDTIVSSTGALSLKKVPEKMVVIGAGVIGVELGSVWQRLGADVTAVEFLGHVGGVGIDMEISKNFQRILQKQGFKFKLNTKVTGATKKSDGKIDVSIEAASGGKAEVITCDVLLVCIGRRPFTKNLGLEELGIELDPRGRIPVNTRFQTKIPNIYAIGDVVAGPMLAHKAEDEGIICVEGMAGGAVHIDYNCVPSVIYTHPEVAWVGKSEEQLKEEGIEYKVGKFPFAANSRAKTNADTDGMVKILGQKSTDRVLGAHILGPGAGEMVNEAALALEYGASCEDMARVCHAHPTLSEAFREANLAASFGKSINF
B10: G194C-hE3 (pathogenic variant of human dihydrolipoamide dehydrogenase) (enzyme, UniProt P09622 36-509, looked up)
chain: ADQPIDADVTVIGSGPGGYVAAIKAAQLGFKTVCIEKNETLGGTCLNVGCIPSKALLNNSHYYHMAHGKDFASRGIEMSEVRLNLDKMMEQKSTAVKALTGGIAHLFKQNKVVHVNGYGKITGKNQVTATKADGGTQVIDTKNILIATGSEVTPFPGITIDEDTIVSSTGALSLKKVPEKMVVIGAGVIGVELCSVWQRLGADVTAVEFLGHVGGVGIDMEISKNFQRILQKQGFKFKLNTKVTGATKKSDGKIDVSIEAASGGKAEVITCDVLLVCIGRRPFTKNLGLEELGIELDPRGRIPVNTRFQTKIPNIYAIGDVVAGPMLAHKAEDEGIICVEGMAGGAVHIDYNCVPSVIYTHPEVAWVGKSEEQLKEEGIEYKVGKFPFAANSRAKTNADTDGMVKILGQKSTDRVLGAHILGPGAGEMVNEAALALEYGASCEDIARVCHAHPTLSEAFREANLAASFGKSINF

Molecular target: the molecule itself
Assay: HDX-MS

Binding result, binds:
B1, B2, B3, B4, B5, B6, B7, B8, B9, B10
